Paper PMC3634753, “A Study of the Mechanism of the Chaperone-like Function of an scFv of Human Creatine Kinase by Computer Simulation” (PLoS ONE, 2013)

How the values were obtained:
Experiment in all cases: peptide or protein array; 12-mer HCK peptides, each shifted by one residue, synthesized as spots on nitrocellulose membrane; incubated with purified scFv-A4 in MP buffer (30 mM Tris-HCl, pH 7.6, 170 mM NaCl, 6.4 mM KCl, 0.05% Tween 20, 5% sucrose) overnight at 4°C; bound scFv electro-transferred onto PVDF and detected with anti-V5 antibody
Conditions in all cases: both partners purified
[1] = target: T1, HCK peptide segment Asn5-Tyr14 (Homo sapiens, UniProt P06732)
T1 construct: human creatine kinase (HCK), segment Asn5-Tyr14 covered by the positive 12-mer spots A2-A6; Each spot held a 12-mer shifted by one residue; also called spots A2-A6; source: synthetic peptide, synthesized on nitrocellulose membrane as spots
T1 chain: NTHNKFKLNY

[2] = target: T2, HCK peptide segment Lys170-Met179 (Homo sapiens, UniProt P06732)
T2 construct: human creatine kinase (HCK), segment Lys170-Met179 covered by the positive 12-mer spots F17-F21; Each spot held a 12-mer shifted by one residue; also called spots F17-F21; source: synthetic peptide, synthesized on nitrocellulose membrane as spots
T2 chain: KGKYYPLKSM

[3] = target: T3, HCK peptide segment Thr313-Thr322 (Homo sapiens, UniProt P06732)
T3 construct: human creatine kinase (HCK), segment Thr313-Thr322 covered by the positive 12-mer spots K5-K14; Each spot held a 12-mer shifted by one residue; also called spots K5-K14; source: synthetic peptide, synthesized on nitrocellulose membrane as spots
T3 chain: TRLRLQKRGT

[4] = target: T4, HCK peptide segment Lys265-Asn274 (Homo sapiens, UniProt P06732)
T4 construct: human creatine kinase (HCK), segment Lys265-Asn274 covered by the positive 12-mer spots I22-I29; Each spot held a 12-mer shifted by one residue; also called spots I22-I29; source: synthetic peptide, synthesized on nitrocellulose membrane as spots
T4 chain: KKAGHPFMWN

[5] = target: T5, HCK peptide segment Ser129-Lys138 (Homo sapiens, UniProt P06732)
T5 construct: human creatine kinase (HCK), segment Ser129-Lys138 covered by the positive 12-mer spots E3-E13; Each spot held a 12-mer shifted by one residue; also called spots E3-E13; source: synthetic peptide, synthesized on nitrocellulose membrane as spots
T5 chain: SRVRTGRSIK

[6] = target: T6, HCK peptide segment Glu248-Leu257 (Homo sapiens, UniProt P06732)
T6 construct: human creatine kinase (HCK), segment Glu248-Leu257 covered by the positive 12-mer spots I3-I12; Each spot held a 12-mer shifted by one residue; also called spots I3-I12; source: synthetic peptide, synthesized on nitrocellulose membrane as spots
T6 chain: EVFRRFCVGL

Measured: binding result

B1: scFv-A4 (scFv, V domains shown)
VH: QVQLVQSGAEVKKPGSSVRVSCKASGGTFSSYAISWVRQAPGQGPEWMGGIIPIFGTANYAQKFQGRVTITADESTSTAYMELSSLRSEDTAVYYCAGSSGWSMSAFDIWGQGTMVTVSS
VL: SSELTQPPSVSVAPGKTARITCGGNNIGSKSVHWYQQKPGQAPVLVIYYDSDRPSGIPERFSGSNSGNTATLTISRVEAGDEADYYCQVWDSSSDHVVFGGGTKLTVL
notes: linker segment GLY112-LYS142; without the linker, the light chain is 100% and the heavy chain 93% identical to the Fab of PDB 2DD8; also called anti-human creatine kinase single chain antibody
binds: all assays above
